In patent publication US7880053B2, “Methods of using transformed plants expressing plant-derived acyl-coenzyme-A-binding proteins in phytoremediation” (priority 2007, dated 2011):
Entries after “also recorded” stand apart in the source; their conditions may differ.

Key:
[1] = Heavy-metal-binding assay using metal-chelate affinity chromatography, Pb(II)-equilibrated matrix; details: for binding of in vitro translated ACBP to Pb(II): [35S]methionine-labeled protein, SDS-PAGE autoradiography, FIG. 2B
Description: (§1) The coding regions of ACBP1, ACBP2 and ACBP6 were generated by RT-PCR for construction of pGEM-T EASY (Promega) derivatives for in vitro transcription/translation. Primers used in RT-PCR were as follows: ACBP1 (ML190 (SEQ ID NO:20) and ML917 (SEQ ID NO:17), ACBP2 (ML902 (SEQ ID NO:21) and ML903 (SEQ ID NO:22)), and ACBP6 (ML812 (SEQ ID NO:23) and ML751 (SEQ ID NO:2)). The PCR products were subsequently cloned into pGEM-T EASY vector (Promega) for in vitro transcription/translation using the TNT® T7/SP6 Coupled Wheat Germ Extract System (Promega) following the manufacturer's instruction. Pb(II)-, Cd(II)-, and Cu(II)-equilibrated matrices for metal-binding assays were prepared by stripping Ni-NTA agarose (Qiagen) of nickel and re-equilibrating with 0.1 M Pb(NO3)2 (Aldrich), CdCl2 (Aldrich), or CuCl2 (Aldrich). Twenty μl of Pb(II)-, Cd(II)-, or Cu(II)-equilibrated matrix, 545 μl of 50 mM KH2PO4, 300 mM NaCl, pH 7.4, and [^35S]methionine-labeled protein were added to a microfuge tube (Dykema et al., Plant Mol. Biol. 41: 139-150, 1999) and rotated on a wheel at 4° C. for 1 h. Subsequently, the matrix was washed 3 times with 1.0 ml of 50 mM KH2PO4, 300 mM NaCl, pH 7.5. The binding protein was eluted with 200 μl of 50 mM KH2PO4, 300 mM NaCl, 500 mM imidazole, pH 4.5, followed by extraction with 200 μl of 2% SDS, 50 mM DTT, heating at 85° C. for 3 min and analysis by SDS-PAGE followed by autoradiography.

[2] = Heavy-metal-binding assay using metal-chelate affinity chromatography, Cd(II)-equilibrated matrix; details: FIG. 2C
Description: as §1, with “The binding protein was eluted with 200 μl of 50 mM KH2PO4, 300 mM NaCl, 500 mM imidazole, pH 4.5, followed by extraction with 200 μl of 2% SDS, 50 mM DTT, heating at 85° C. for 3 min and analysis by SDS-PAGE followed by autoradiography.” left out

[3] = Heavy-metal-binding assay using metal-chelate affinity chromatography, Cu(II)-equilibrated matrix; details: FIG. 2C
Description: as §1, with “The binding protein was eluted with 200 μl of 50 mM KH2PO4, 300 mM NaCl, 500 mM imidazole, pH 4.5, followed by extraction with 200 μl of 2% SDS, 50 mM DTT, heating at 85° C. for 3 min and analysis by SDS-PAGE followed by autoradiography.” left out

[4] = system: ACBP1 to ACBP5 mRNA; assay: RT-PCR of ACBP transcripts in root after Pb(II) treatment; format: in vivo, Arabidopsis thaliana; details: 1 mM Pb(NO3)2, 24 h, 3-week-old Col-0 seedlings, FIG. 1
Protocol: (§2) Arabidopsis thaliana wild-type Columbia (ecotype Col-0), ACBP1- and ACBP3-overexpressing transgenic plants (ecotype Col-0) were grown under 8 h dark at 21° C. and 16 h light at 23° C. cycles. For Pb(II)-inducible gene expression analysis, Arabidopsis seedlings were grown for 3 weeks in continuous light, treated with 1 mM Pb(NO3)2 or water (as control), and shoot and root samples were collected at 24 h post-treatment. For Pb(II) sensitivity tests, Arabidopsis seedlings were surface-sterilized and grown on Murashige and Skoog (Physiol. Plant. 15: 473-497, 1962) medium containing 2% sucrose with or without 0.75 mM Pb(NO3)2 (Sigma-Aldrich, St. Louis) for 2 to 3 weeks.
(§3) To determine if the regulation of Arabidopsis ACBP mRNAs responds to Pb(II) stress, we performed reverse transcription-PCR(RT-PCR) using root tissue RNA following treatment with 1 mM Pb(NO3)2. For RT-PCR, total RNA was extracted with TRIzol (Invitrogen) reagent, according to the manufacturer's protocol, from roots of 3-week-old wild-type Arabidopsis (Col-0) seedlings in the presence or absence (water as control) of 1 mM Pb(NO3)2. RT-PCR analysis was performed as according to the manufacturer (Invitrogen Cat No. 12371-019). Specific primers were designed based on mRNA sequences. […]

[5] = system: ACBP6 transcript; assay: as above; format: in vivo, Arabidopsis thaliana; details: 1 mM Pb(NO3)2, 24 h, 3-week-old Col-0 seedlings, FIG. 1
Protocol: as §2, §3

[6] = Lead-binding assay, fluorescence of dansylated (His)6-ACBP; details: 1 to 9 μM Pb(II), FIG. 2A
Protocol: Lead-binding assays and fluorescence measurements were carried out according to Funaba and Mathews (Mol. Endocrinol. 14:1583-1591, 2000) with minor modifications. Briefly, 3.2 μM of each purified (His)6-ACBP protein which was equilibrated in 20 mM phosphate buffer (pH 7.2) with 200 mM NaCl, were labeled with 8 μl of 200 mM dansyl aziridine (Molecular Probes, Cat. No. D151) and reacted for 2 h in a 1.5 ml Eppendorf tube at room temperature. The dansylated (His)6-ACBP proteins were then distributed to 8 wells of a 96-well microtiter plate (Nunc Cat. No. 236105). Various concentrations (0, 1.0, 2.0, 3.0, 4.0, 5.0, 7.0 and 9.0 μM) of Pb(NO3)2 (Aldrich, Cat. No. 203580) solutions were added and the reactions were incubated at room temperature for 1 h.
Fluorescence measurements were performed using a BIO-TEK FL600 Fluorescence Plate Reader (BIO-TEK Instrument, INC, USA) with excitation wavelength set at 360/40 nm and emission wavelength set at 530/25 nm. Prior to binding with lead, the dansyl aziridine coupled (His)6-ACBP recombinant proteins are sensitive to the conformational changes. After binding to Pb(II) molecules, the dansylated (His)6-ACBP recombinant proteins would change their conformations and the dye will show an increase in fluorescence excitation. […] Each experiment was repeated three times to ascertain results.

[7] = EDTA at 50 mM final concentration
[8] = [35S]methionine-labeled protein

In the case of O=C(O)CN(CCN(CC(=O)O)CC(=O)O)CC(=O)O [EDTA, ethylenediaminetetraacetic acid, reference compound], the “effect on binding of ACBP2 to Pb(II)” value ([1]; EDTA at 50 mM final concentration, FIG. 2C) is reported as “inhibited”, the “effect on binding of ACBP2 to Cd(II)” value [2, 7] is reported as “inhibited” and the “effect on binding of ACBP2 to Cu(II)” value [3, 7] is reported as “inhibited”.

In the case of O=[N+]([O-])[O-].O=[N+]([O-])[O-].[Pb+2] [Pb(II)], the “mRNA expressions of ACBP1 to ACBP5 in roots” value [4] is reported as “increase” and the “transcript of ACBP6 in roots” value [5] is reported as “little change”.

B1: ACBP1: in vitro translated [35S]methionine-labeled Arabidopsis ACBP1 (SEQ ID NO: 27), wheat germ extract system (protein)
chain: MADWYQLAQSIIFGLIFAYLLAKLISILLAFKDENLSLTRNHTTQSEYENLRKVETLIGISGETDSLIAEQGSLRGDEDESDDDDWEGVESTELDEAFSAATAFVAAAASDRLSQKVSNELQLQLYGLYKIATEGPCTAPQPSALKMTARAKWQAWQKLGAMPPEEAMEKYIDLVTQLYPAWVEGGSKRRNRSGEAAGPMGPVFSSLVYEEESDNELKIDAIHAFAREGEVENLLKCIENGIPVNARDSEGRTPLHWAIDRGHLNVAEALVDKNADVNAKDNEGQTSLHYAVVCEREALAEFLVKQKADTTIKDEDGNSPLDLCESEWSWMREKKDSN
modifications: Arabidopsis
For B1, the “binding of in vitro translated ACBP to Pb(II)” value [1] was “bind Pb(II) better than ACBP6; also recorded: slightly better binding than ACBP2”.

B2: (His)6-ACBP6: recombinant (His)6-ACBP6, 18.9 kDa inclusive of His-tag, from vector pAT335 in E. coli (protein, UniProt P57752 1-92, looked up)
Acyl-CoA-binding …: MGLKEEFEEHAEKVNTLTELPSNEDLLILYGLYKQAKFGPVDTSRPGMFSMKERAKWDAWKAVEGKSSEEAMNDYITKVKQLLEVAASKAST
modifications: His6 tag
notes: recombinant (His)6-ACBP6, 18.9 kDa inclusive of His-tag, from vector pAT335 in E. coli
For B2, the “relative fluorescence intensity in the presence of Pb(II), indicative of binding to Pb(II)” value [6] was “bind Pb(II) less well than ACBP1”.

B3: ACBP6: in vitro translated [35S]methionine-labeled Arabidopsis ACBP6 (SEQ ID NO: 26), 10-kDa ACBP (protein)
chain: MGLKEEFEEHAEKVNTLTELPSNEDLLILYGLYKQAKFGPVDTSRPGMFSMKERAKWDAWKAVEGKSSEEAMNDYITKVKQLLEVAASKAST
modifications: Arabidopsis
In the case of B3, the “binding of in vitro translated ACBP to Pb(II)” value [1] is reported as “bind Pb(II) less well than ACBP1”.

B4: ACBP2 (protein)
chain: MGDWAQLAQSVILGLIFSYLLAKLISIVVTFKEDNLSLTRHPEESQLEIKPEGVDSRRLDSSCGGFGGEADSLVAEQGSSRSDSVAGDDSEEDDDWEGVESTELDEAFSAATLFVTTAAADRLSQKVPSDVQQQLYGLYKIATEGPCTAPQPSALKMTARAKWQAWQKLGAMPPEEAMEKYIEIVTQLYPTWLDGGVKAGSRGGDDAASNSRGTMGPVFSSLVYDEESENELKIDAIHGFAREGEVENLLKSIESGIPVNARDSEGRTPLHWAIDRGHLNIAKVLVDKNADVNAKDNEGQTPLHYAVVCDREAIAEFLVKQNANTAAKDEDGNSPLDLCESDWPWIRDSAKQAD
modifications: Arabidopsis
With B4 the “binding of in vitro translated ACBP to Pb(II)” value [1] was “bind Pb(II) better than ACBP6”, the “binding of in vitro translated ACBP to Cd(II)” value [2, 8] was “binds Cd(II) and Cu(II) better than ACBP6” and the “binding of in vitro translated ACBP to Cu(II)” value [3, 8] was “binds Cd(II) and Cu(II) better than ACBP6”.

B5: (His)6-ACBP4: recombinant (His)6-ACBP4 from pRSET B-derived vector pAT184 in E. coli (protein, UniProt Q9MA55 1-668, looked up)
Acyl-CoA-binding …: MAMPRATSGPAYPERFYAAASYVGLDGSDSSAKNVISKFPDDTALLLYALYQQATVGPCNTPKPSAWRPVEQSKWKSWQGLGTMPSIEAMRLFVKILEEDDPGWYSRASNDIPDPVVDVQINRAKDEPVVENGSTFSETKTISTENGRLAETQDKDVVSEDSNTVSVYNQWTAPQTSGQRPKARYEHGAAVIQDKMYIYGGNHNGRYLGDLHVLDLKSWTWSRVETKVATESQETSTPTLLAPCAGHSLIAWDNKLLSIGGHTKDPSESMQVKVFDPHTITWSMLKTYGKPPVSRGGQSVTMVGKTLVIFGGQDAKRSLLNDLHILDLDTMTWDEIDAVGVSPSPRSDHAAAVHAERFLLIFGGGSHATCFDDLHVLDLQTMEWSRPAQQGDAPTPRAGHAGVTIGENWFIVGGGDNKSGASESVVLNMSTLAWSVVASVQGRVPLASEGLSLVVSSYNGEDVLVAFGGYNGRYNNEINLLKPSHKSTLQTKTLEAPLPGSLSAVNNATTRDIESEVEVSQEGRVREIVMDNVNPGSKVEGNSERIIATIKSEKEELEASLNKERMQTLQLRQELGEAELRNTDLYKELQSVRGQLAAEQSRCFKLEVDVAELRQKLQTLETLQKELELLQRQKAASEQAAMNAKRQGSGGVWGWLAGSPQEKDDDSP
modifications: His6 tag
notes: recombinant (His)6-ACBP4 from pRSET B-derived vector pAT184 in E. coli
With B5 the “relative fluorescence intensity in the presence of Pb(II), indicative of binding to Pb(II)” value [6] was “much higher than the other recombinant ACBPs”.
